Assay results: publication PMC7820290 (Nature Communications, 2020)

Key:
Assay in all cases: […]; 5 mM HEPES pH 7.5, 80 mM KCl, 20 °C; […]
Details in all cases: both partners purified
[1] = target: T1, SARS-CoV-2 N protein residues 1–364 (SARS-CoV-2, UniProt P0DTC9 1-364)
T1 construct: also called N^1–364

[2] = target: T2, SARS-CoV-2 N protein residues 49–364 (SARS-CoV-2, UniProt P0DTC9 49-364)
T2 construct: also called N^49–364

[3] = target: T3, SARS-CoV-2 N protein residues 49–419 (SARS-CoV-2, UniProt P0DTC9 49-419)
T3 construct: also called N^49–419

Measured: binding result

B1: soluble C-terminal domain of SARS-CoV-2 membrane (M) protein (aa 104–222 of 222) fused to GFP (domain or fragment)
chain: ARTRSMWSFNPETNILLNVPLHGTILTRPLLESELVIGAVILRGHLRIAGHHLGRCDIKDLPKEITVATSRTLSYYKLGASQRVAGDSGFAAYSRYRIGNYKLNTDHSSSSDNIALLVQ
notes: also called GFP-M^104–222
binds: [1] | [2] | [3]
